Reference: a protein production outcome set (Wang et al. 2014)

Experiment: label from the status in PepcDB records

Sequence | protein production
MAQVNKQAIAAAFGRAASQYEQHASLQQHSADALLTLLTGRQFASVLDAGCGPGRMSRYWRERGSEVTALDLSLPMLQQARDRQAAHHYLLADIEAIPHDAEVFDLAWSNLAVQWCGDLRDALSELYRVVRPGGVVAFTTLCQGSLPELRQAWQAVDNRAHANSFLPEEAIDHALRGWRAFRHTQAMTLWFEDALSAMRSLKGIGATHLHEGRESDVLTRARLRQIQLAWPQRQGKYPLTYHLFMGVIERD | failed
MGHHHHHHSHMKPSGEDQAALAAGPWEECFQAAVQLALRAGQIIRKALTEEKRVSTKTSAADLVTETDHLVEDLIISELRERFPSHRFIAEEAAASGAKCVLTHSPTWIIDPIDGTCNFVHRFPTVAVSIGFAVRQELEFGVIYHCTEERLYTGRRGRGAFCNGQRLRVSGETDLSKALVLTEIGPKRDPATLKLFLSNMERLLHAKAHGVRVIGSSTLALCHLASGAADAYYQFGLHCWDLAAATVIIREAGGIVIDTSGGPLDLMACRVVAASTREMAMLIAQALQTINYGRDDEK | failed
MRSSDILIVDDEVGIRDLLSEILQDEGYSVALAENAEEARKLRHQARPAMVLLDIWMPDCDGITLLKEWAKNGQLNMPVVVMSGHASIDTAVEATKIGAIDFLEKPISLQKLLSAVENALKHGAAQIETGPVFDKLGNSAAIQEMNREVEAAAKRTSPVFLTGEAGSPFETVARYFHKNGTPWVSPARVEYLIDMPMELLQKAEGGVLYVGDIAQYSRNIQTGITFIIGKAERCRVRVIASCSYAAGSDGISCEEKLAGLFSESVVRIPPLSMQHEDIPFLIQGIACNVAESQKITPTAFSDDALAVLSRYDWPGNFEQLQNVVTTLLLEADGQEIGIGAASSALGRGVPADGTGHMACGFDFNLPLRELREEVERRYFEYHIAQEGQNMSKVAQKVGLERTHLYRKLKQLGIGVSRRAGEKTEE | not failed
MSKLEFLAFYDELTGLPNKNSLIRWLNLKVSQMDCIDTYLIFLEVRDLEKLNVTYGYDLVDELIIHISKRIKDIAGEGNKAFKIGFDRFAIICKSENISDFIERMLSQLLLPYNVNGNLIRVNFNIGAAQIENSNEAAANLMRRCDLALIKAKEEGLNEYVIFKPSIEIQTLEHHHHHH | not failed
MEQYKLVLEGAKQLKWETNEIKDIQDDEIIVKTIAGSISIGAELPQYNGSDVTDPHPFYPRKTGYESYGEVIEVGNQVTHVNVGDKVVSFYGHETIGIVKAHKVIRVPSSIQPKIALLSILSCDAAKGVLKLNPRQDEKVLIIGMGVIGLLACYFLKYYVGIEHVDVVEPNKNRRDFAKKFGTKNIYDSEEKIIETYNYGFECSATNSGFHTLQKALKTNGKICILSDGNIEELTLTANFYQKELQIIGSSDGYDYQKHADWFFEEIGKTPFIEEIFQHEIHYTSLIQCFDELSLGIIKPLKVYVSYE | failed
MSDVIQLAYFAVAVVFILGLKAMSSPVSARKGIVWAGYAMVAATLITLLKPGMENYGLMITAIVLGGAVAWWSGKVVKMTDMPQMVAIYNGMGSGAAAAIAALEFARGSMHGGFAATLAVLGALIGSVAFSGSCIAFAKLQGIMTKAWRLPAQNVVNVALAGIALVLGGAIIFGSTPASEMVIAFFVVALALGAILTSPIGGADMPVVISLLNAFTGLAVGFEGYVLGNPALIVAGIVVGASGTLLTQLMAKAMNRPIKNIIFTPITGAAAGGGEAIGGSMKELSALDGASVMRYASKVIIVPGYGMAVAGAQHKVWEMAQLLEEGGVEVVFAIHPVAGRMPGHMNVLLAEAGVPYDKIFDLEEINADFPQADVALVIGANDVVNPVARTDKSSPIYGMPILNVDMAQNVIVVKRGQGAGYSGIENALFFKDNCRMLYGSAQQIIGEVITHVKALEV | failed
MRMTLRQLRIFNEVCDLRSYSRAAEEMSLTQPAVSLQVRQLEELIGQPLFEYVGKKLYMTEAAEALQLASRDIFGRLESLDMQLSDMQGSLQGQLKLAVESSCKYFIPHLFAAFKRQHPEVSLSLMVVNRAQIIRRLSDNRDDLVVMSAVPLDMGLEFLPFLNNPIVAVAPPDHPLSSRETLSLKDLEPWPLLTRETGSGTRRACEEYFKEKRVHFTQTLEVSSSEAQRECVVAGLGLAMLTRHAVCQELATGTLVELPVAELPLYRSWCVVQARDKRLSPVAHAFLAFIRTERAQISQLVERFDGRPQAV | failed
MKYTVYLFDFDYTLADSSRGIVTCFRSVLERHGYTGITDDMIKRTIGKTLEESFSILTGITDADQLESFRQEYSKEADIYMNANTILFPDTLPTLTHLKKQGIRIGIISTKYRFRILSFLRNHMPDDWFDIIIGGEDVTHHKPDPEGLLLAIDRLKACPEEVLYIGDSTVDAGTAAAAGVSFTGVTSGMTTAQEFQAYPYDRIISTLGQLISVPEDKS | not failed
DSIVEGRTLNVAVSPASPPMLFKSADGKLQGIDLELFSSYCQSRHCKLNITEYAWDGMLGAVASGQADVAFSGISITDKRKKVIDFSEPYYINSFYLVSMANHKITLNNLNELNKYSIGYPRGMAYSDLIKNDLEPKGYYSLSKVKLYPTYNETMADLKNGNLDLAFIEEPVYFTFKNKKKMPIESRYVFKNVDQLGIAFKKGSPVRDDFNLWLKEQGPQKISGIVDSWMK | not failed
MTKEPRNLSEWIKELKKASREAVILVEGKNDKKALSKFSIKNVIDLSGKRYADVVDMLEGKWEKVILLFDLDTHGERINQKMKELLSSQGFLVDENFRNFLKKWNIIHIEEINGGKNS | not failed
MKNFNDEEHNSQLTDEVLPEPEDARVIANILKAVGVESFDTRVVAQLVEFVYKYIGEVLELSKTFAQYAEREDIRQDDVKLAISSLLSKSFTQPPSRDVLLQLCRERNAVPLPVVDTYVGIQLPPKEFQLTTRNYQLKRKTTTESVASQELSEATGNISIGESSLQPNEEESNTMNT | failed
MSVQLVKGVNLHVIPTEKYKTVRLLVRFNTRLNHETITKRTLLSSLMETNSLNYPNQVKLSERLAELYGASFGIGVSKKGNQHWFNISMNIVNDHYLQDSQVLAEAVDFLKEIIFAPNIQAGQFEAETFQREKENLKAYLESIVEDKQTYASLALQSVYFNQSEDQKIPSFGTVAALAEETAASLAAYYQKMLAEDQVDIFVLGDVNEAELVPLFKQLPFTPREEGKAAIFYNQPIRNVIEERTEREVLAQSKLNLAYNTDIYYGDSYYFALQVFNGIFGGFPHSKLFMNVREKEHLAYYASSSIDTFRGFMTVQTGIDGKNRNQVLRLISTELENIRLGKIRELEIEQTKAMLKNQYILALDNAGAWLEKEYLNELMPQTMLTAEEWIARINAVTIPEIQEVAKRLELQAIFFLEGETEND | not failed
ELQVIQPEKSVSVAAGESATLRCAMTSLIPVGPIMWFRGAGAGRELIYNQKEGHFPRVTTVSELTKRNNLDFSISISNITPADAGTYYCVKFRKGSPDDVEFKSGAGTELSVRAKPSAPVVSG | not failed
MGGGPALNRDSSRHARPFISSPVKTLAIIPAFNEAQAIGPVLGDLPDGWVDEVVVVNNASTDATKANARAAGATVVDEPQQGYGAACLRGIAYAETRQPDVVVFLDGDYSDHPEELPRLVEPIAADEADFVVGSRIRGDAEPGALLPQAQVGNRFACSLMARLWGADYTDLGPFRAIRFRDLLALDMQDETFGWTIEMQIRALEAGLRVEEVPVSYRRGIGPSKITGTLSGTVKASAKILWTIGRMAATTHRRAPRLRERVDRARTDAPTPNPGGLEHHHHHH | failed
MHLKEILAQFSFFTAIPVKSSASLEEIAESSYISPIIVGISLGLIESVAYLILYRILGELTGIVLLGIIELLRGFNHLDGLLDLGDALMIRGNREKKIKALKDVEVGSGGIGLLLVYLSIQIVALLKLDFSLYTIFYLISSNVLSMSLSLYILSTISPIPESNLGRIFHDKLKGKSTILLLELIPFISLYNVIVFIIFYMIMYKICGSLGGSSGDIAGASITLSFPLFLITDEITNLNYSLLSILCYLFSHLH | failed
MGENVLICLCGSVNSINISHYIIELKSKFDEVNVIASTNGRKFINGEILKQFCDNYYDEFEDPFLNHVDIANKHDKIIILPATSNTINKIANGICDNLLLTICHTAFEKLSIFPNMNLRMWENPVTQNNIRLLKDYGVSIYPANISESYELASKTFKKNVVAPEPYKVLEFI | not failed
MKNGGVFVSIALLVTITLVMGVIFVNGWTDAPNAIATAVSTRVLKPNVAIWMAVVMNFLGALVMTFFNAQVAETISNIVSFDANGNASQVALAASLFSIVVWAVAAWYFGIPTSESHALIAGLTGSAMALGGLGAVNGSEWIKVLVGLVVSTVMGFGGGYLIAKLVVKAFSAVPRRKANKFFTVGQAFGAGANAFLHGAQDGQKFMGVFMLVLFYNNLVEKTGGGFVIPLWVMVLCSITMGIGTSVGGMRIIKSVGMDMVKLERYQGFTADLSTAICLFLASAFGIPVSTTHTKTTAIMGVGASKRISSVDWRIVKEMLIAWILTFPGCGLIAYVMSKLFIAIF | failed
MKYAITGATGHLGQQIVAAMRPLVATTELYLGVHTLSKAQVYQQQGLHIAAIDYQQPEQLRAFFQDSDVLIYIPSKSHDSYSRVQEFENVLAAVQQANVHHFLVMGFIADQVNNPFALSAFYGYVPRRLAGSDINYTIVRNALYADPLVPYLPELIERHNVVYPMADQALSFISQADSAAAFAKVATTPDLLQRGRIYTLTQSRAYTMPELATVLSQVSGQLIGYRPVSLQAFSNMYNQNGEGPMLASMYAGGARGLLATVSDDYQLIMDRPAQSLLDYLQTNYQKS | failed
MLELLTLLLPVAAASGWYAAARHHGRNLSAGLNDGLQRAYQTPTDTAIGARADEAFHLLRQIADSSAKTLELQLALGGLLRRSGELSKAIELHERLHSQPQMSDEQLHAIRFELGMDYLSAGLLDRAETVFAGLTATASHGKASLQQMLAIYQSEKDWVRAAECARSLKKFDAGQRNATLAHLLCEQAESAIARGETVAAHAHLQQALAEDPRCVRATLLKSRLALQRQQWAEAGTLLRSVEFQNPAFLPEVIGQLRLCHASLRDMDGYLTYLDYVYQRYRTEAAALLLADELAQREGAPAAASYLTGLLSERSSLNLIRRTLHYAGAATCIDGDCLSILRRCLTALDGLASMHPGYGCVQCGYECRELHWHCPTCRAWETIQPADPGVGFSGKTPATTPS | failed
AYQPIRYRETGKVGELTFEFYNGAMSTEQCQRLVSALRWAKARDTQVLLVRGGRGAFSNGVHLNVIQAAEVPGLEAWANIQAIDDVCLELLTARQLVVSGLTGNAGAGGLMLALAADVVLARADTVYNPHYKSMGLYGSEYWTYSLPRAVGQAMAKQLTEACLPISALQALQMGMVQEIGPRC | failed
MATATETSKATTKTQASAAADRESLTVSRAFNAPRDLVFQAWSAAEHLKHWFCPQGFTIPECEVEFRPGGKFDLWMRSLDGNYSHWIRGHYVEIIPHSRLVLDMTVVTEAGVALFNANTSVTFETVCGGTEMSVTQRYTALDPSAGNFTRGAEEGWAQTLDRLEKEVARIAAATPARSVAHGVFTIERTYDASPELVFRALSDPVAKAQWFNGGPGYTEVKRTMDVRPGGREHLQGRWENGLVSTFDAVYFDVIPNERLVYSYEMHMGERKISVSLATFELKRAGQGTRLVMTEQGAFLDGYDDAGSREHGSGLLLDAIGEWLKAMTKR | failed
MTRFNRFRRTLMQWTGSLPLLGALPLSKLAQAQGAEQPAASGTPPAGGTRAPRFAYVGTYTFDAPGGTAGGPPARGIYVLAPRGDAWSQAQVVESANPSFLAVHPNQRCLYAINEIDVYEGRATGTAEAYAIDPRDGRLTLLNRQPLSLSGTIPAHVAVSPDGQHLAVALYGGGAYNVLPIGADGRLGSVSGLFKDTGSGPDTARQEAPHAHMVLFDPTGRHILGTDLGTDRINVFALEDGKLTPRDRAQLKPGGGPRHLALHPSGKLLYVISELDSTVACHGYDPATGRVLDERQRIATTPADYTGQKSGAALVMHPSGRFLYASNRRLKSEHPLADSIAAFSIDPASGRLAALQYWSEGLRFPRALTMADDGRHLYALSQKGDTILRLRIDDATGRLDQPAVVSNVPTPVCLVFAG | failed
MPPPIHPSSSAAPGPVPNHLIWAIVSTVLGFCLCCPALISGIVAIVFSSKVNGLLNQGDIDGARRASNTAKTWCIVTSVLAAIGLLINIGMVATGGMQGYMDYMQQLQHMQ | failed
